According to patent US20200069775A1, “BRAIN OSTEOCALCIN RECEPTOR AND COGNITIVE DISORDERS” (The Trustees of Columbia University in the City of New York, priority 2017, published 2020):

Target: T1, Gpr158 (Mus musculus, UniProt Q8C419)
T1 sequence (Q8C419 25-1200): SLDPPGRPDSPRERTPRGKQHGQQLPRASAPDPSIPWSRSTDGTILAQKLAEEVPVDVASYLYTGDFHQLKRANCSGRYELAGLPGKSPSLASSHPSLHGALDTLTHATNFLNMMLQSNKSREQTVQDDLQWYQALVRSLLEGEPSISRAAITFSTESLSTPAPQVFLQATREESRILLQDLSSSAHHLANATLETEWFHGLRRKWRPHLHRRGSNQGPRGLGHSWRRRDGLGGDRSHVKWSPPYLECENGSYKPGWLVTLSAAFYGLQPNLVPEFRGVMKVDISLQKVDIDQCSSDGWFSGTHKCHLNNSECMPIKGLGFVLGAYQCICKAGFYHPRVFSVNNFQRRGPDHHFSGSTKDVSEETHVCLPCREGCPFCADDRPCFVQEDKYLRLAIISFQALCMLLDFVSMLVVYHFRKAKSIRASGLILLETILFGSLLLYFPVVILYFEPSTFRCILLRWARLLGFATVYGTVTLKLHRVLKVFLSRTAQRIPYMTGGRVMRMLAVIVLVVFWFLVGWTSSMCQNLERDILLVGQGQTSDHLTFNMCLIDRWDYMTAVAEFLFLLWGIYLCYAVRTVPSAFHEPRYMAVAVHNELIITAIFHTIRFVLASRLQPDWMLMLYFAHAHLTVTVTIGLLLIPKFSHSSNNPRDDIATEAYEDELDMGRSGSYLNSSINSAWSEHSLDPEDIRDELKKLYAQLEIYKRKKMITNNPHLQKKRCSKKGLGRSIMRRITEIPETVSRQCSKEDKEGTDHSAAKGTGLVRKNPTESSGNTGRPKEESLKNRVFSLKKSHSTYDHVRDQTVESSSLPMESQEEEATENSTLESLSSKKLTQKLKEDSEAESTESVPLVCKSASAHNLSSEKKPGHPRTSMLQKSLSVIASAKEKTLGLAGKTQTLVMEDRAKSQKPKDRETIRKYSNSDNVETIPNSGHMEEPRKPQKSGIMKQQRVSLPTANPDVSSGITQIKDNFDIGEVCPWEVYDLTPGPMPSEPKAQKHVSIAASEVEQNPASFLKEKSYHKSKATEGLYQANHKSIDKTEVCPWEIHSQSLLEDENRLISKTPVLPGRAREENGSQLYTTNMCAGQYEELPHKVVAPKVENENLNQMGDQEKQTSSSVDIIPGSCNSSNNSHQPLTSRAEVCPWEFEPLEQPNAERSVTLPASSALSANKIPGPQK
Experiment: Hippocampal lentiviral sh-Gpr158 knockdown followed by osteocalcin injection, NOR and CFC
Assay type: in vivo
Parameters: from tissue; host or cells: anterior hippocampus of living 3-month-old C57BL/6J male mice
Method: Mice were anesthetized with intra-peritoneal injection of […] (Rompun 2%; Bayer) and placed in a stereotaxic frame (900SL-KOPF). Ophthalmic eye ointment was applied to the cornea to prevent desiccation during surgery. The area around the incision was trimmed and Vetedine solution (Vetoquinol) was appplied. Lentiviruses expressing shRNA targeting Gpr158 or non-effective scramble shRNA in pGFP-C-shLentiVector were injected bilaterally into the anterior hippocampi using the following coordinates: (from bregma) anterior=−2.0 mm, lateral=+/−1.4 mm and height=-1.33 mm. Coordinates were determined using the Mouse Brain in Stereotaxic Coordinates (Paxinos and Franklin, 2008). Two weeks later, osteocalcin (10 ng) or NaCl were injected using the same coordinates. […]
Novel object recognition test (NOR): The NOR paradigm assesses the rodent's ability to recognize a novel object in the environment. […] These objects elicit equal levels of exploration as determined in pilot experiments (Denny, C. A., et al., 2012, Hippocampus 22:1188-1201; Oury, F., et al., 2013, Cell 155:228-241). […] Preference for the novel object is assessed based on the fraction of time that a mouse spends exploring the novel object compared to the familiar object. Exploration is scored from video recordings of each exposure and recorded using the Stopwatch program. […]

**Q.** Which results are given for “osteocalcin: Recombinant osteocalcin bacterially produced, cleaved from the GST subunit; completely undercarboxylated at all three sites; full-length mouse osteocalcin (YLGASVPSPDPLEPTREQCELNPACDELSDQYGLKTAYKRIYGITI)”?
**A.** memory performance (NOR) (control (scrambled shRNA) mice, osteocalcin 10 ng in anterior hippocampus): enhanced memory performance; contextual fear conditioning (CFC) (sh-control vs sh-Gpr158 mice, osteocalcin 10 ng): A similar result was obtained
